From PMC2871033 (Structure (London, England : 1993), 2010)

T1: Prp19, separately purified (analytical ultracentrifugation) (S. cerevisiae), P32523
T1 chain: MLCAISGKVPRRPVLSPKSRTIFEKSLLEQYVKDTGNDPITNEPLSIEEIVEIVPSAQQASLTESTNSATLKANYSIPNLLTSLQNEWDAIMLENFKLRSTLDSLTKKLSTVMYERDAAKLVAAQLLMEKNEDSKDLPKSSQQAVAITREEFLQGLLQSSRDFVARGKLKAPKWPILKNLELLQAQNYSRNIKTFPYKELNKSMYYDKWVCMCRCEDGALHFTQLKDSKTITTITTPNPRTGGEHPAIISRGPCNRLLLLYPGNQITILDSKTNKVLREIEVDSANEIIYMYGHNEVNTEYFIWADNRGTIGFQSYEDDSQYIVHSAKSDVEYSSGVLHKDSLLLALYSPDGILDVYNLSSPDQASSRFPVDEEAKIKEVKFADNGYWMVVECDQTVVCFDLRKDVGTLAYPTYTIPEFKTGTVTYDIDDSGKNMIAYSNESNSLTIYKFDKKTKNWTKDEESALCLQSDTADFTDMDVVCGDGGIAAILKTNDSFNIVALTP

T2: Cwf8-Myc13 (S. pombe Prp19) (S. pombe, UniProt O14011 1-488)
T2 sequence (looked up): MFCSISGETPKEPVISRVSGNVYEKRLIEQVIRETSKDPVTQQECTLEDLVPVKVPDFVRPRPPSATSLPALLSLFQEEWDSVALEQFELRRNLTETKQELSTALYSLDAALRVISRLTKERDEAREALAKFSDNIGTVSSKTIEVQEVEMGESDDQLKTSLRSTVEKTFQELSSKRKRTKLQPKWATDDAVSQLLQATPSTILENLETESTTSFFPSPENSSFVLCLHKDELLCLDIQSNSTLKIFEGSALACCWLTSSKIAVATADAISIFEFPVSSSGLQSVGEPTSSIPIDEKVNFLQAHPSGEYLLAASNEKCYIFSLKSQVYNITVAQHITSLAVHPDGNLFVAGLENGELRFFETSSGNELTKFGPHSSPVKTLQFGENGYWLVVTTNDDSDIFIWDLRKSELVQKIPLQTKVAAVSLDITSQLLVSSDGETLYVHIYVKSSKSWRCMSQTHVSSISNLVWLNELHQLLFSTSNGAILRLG

B1: Prp19, separately purified (analytical ultracentrifugation), P32523 1-503 (natural protein)
chain: T1 chain
B2: Cwf2-Myc13 (S. pombe Cwc2) (natural protein, UniProt P87126 1-388, looked up)
chain: MSENGLEQEVTVEEKNNDVTEKILVEGEKSKEYEETPRKVKIVKRKKQPARKQIETRPEYEMEPEQPGQVYNLWYNKWSGGMRQDPLKSQVKSETRCVISRDSGYTKADKNPGSFFCLYFARGMCSEGSKCEYLHRLPKDTDFFNANVDCFGREKHADYRDDMGGVGSFLRQNYTLYVGGITPTDDIEEIVSRHFAEWGDIERIRVLNSRGIAFITYLNEANAQFAKEAMAHQSLDHDECLNVRWATTDPNPASQARNQRRLEERAANAVKKLLPKQFLLDLEETKNGKSGNRKRKLELEFGLKGYVPSDDLLYADGANSVHNQLAANEFPNKSQSEEGSNDDHKSVTTTESQNKFVNSQILSDLQVAKQAVHTNQSALVSYYDSDED

Experiments:
[1] = target: T1, Prp19, separately purified (analytical …); test: AUC; conditions: remark: other sources report otherwise
[2] = target: T2, Cwf8-Myc13 (S. pombe Prp19); test: co-IP

Binder | stoichiometry N [1] | stoichiometry N [2]
B1 | 4 | –
B2 | – | 2 copies of Cwf2 per four copies of Cwf8
